One may read the Kd as the equilibrium constant for the complex coming apart. Low values mean tighter binding, high ones weaker binding.

For one assay, the target named is gp120 JRFL (HIV-1 JRFL, UniProt P20871 32-503). The assay can be described thus: ELISA, antigen coated (FIG. 1). Background: ELISA stands for enzyme-linked immunosorbent assay.
Another assay has as its target T1, gp120JRFL+sCD4 complex (HIV-1 JRFL).
T1 construct: domain: gp120;domain: two-domain soluble CD4 (D1D2)
The assay can be described thus: ELISA, antigen coated (FIG. 1).

Assay [1] addresses T2, protein G cross-linked to Sepharose beads.
T2 construct: also called protein G beads; Protein G-Sepharose beads
The assay can be described thus: binding to protein G cross-linked to Sepharose beads; method not stated.

The target of assay [2] is T3, gp120 89.6 (HIV-1 89.6, UniProt Q73372 32-508).
T3 construct: domain: gp120
The assay can be described thus: ELISA, antigen coated, Langmuir isotherm fit (FIG. 2 legend).

The target of assay [3] is T3, gp120 89.6. Briefly: ELISA, antigen coated, Langmuir isotherm fit (FIG. 2).
For the next assay, the target named is T4, sCD4-gp120 89.6 complex (HIV-1 89.6, UniProt Q73372 32-508; P01730 26-208).
T4 construct: domain: gp120;domain: two-domain soluble CD4 (D1D2)
The assay is described as above.

In assay [4] the target is T5, gp120-CD4-CCR5 complex (JRFL gp120) used for the X5 selection (HIV-1 JRFL). Briefly: binding to the complex used for selection; method not stated.
Assay [5] has as its target T2, protein G cross-linked to Sepharose …. The assay can be described thus: effective affinity of phage for protein G beads; method not stated.
In assay [6] the target is T5, gp120-CD4-CCR5 complex (JRFL gp120) …. Briefly: effective affinity of phage for the bead-bound complex; method not stated.
In assay [7] the target is T2, protein G cross-linked to Sepharose …. The assay can be described thus: effective affinity of phage for beads; reference is the gp120-CD4-CCR5 complex.

B1: X5 Fab (Fab)
heavy: EVQLLEQSGAEVKKPGSSVQVSCKASGGTFSMYGFNWVRQAPGHGLEWMGGIIPIFGTSNYAQKFRGRVTFTADQATSTAYMELTNLRSDDTAVYYCARDFGPDWEDGDSYDGSGRGFFDFWGQGTLVTVSSASTKGPSVFPLAPSSKSTSGGTAALGCLVKDYFPEPVTVSWNSGALTSGVHTFPAVLQSSGLYSLSSVVTVPSSSLGTQTYICNVNHKPSNTKVDKKVEPKSCDKTS
light: AELVLTQSPGTLSLSAGERATLSCRASQSVSSGSLAWYQQKPGQAPRLLIYGASTRATGIPDRFSGSGSGTDFTLTIGRLEPEDLAVYYCQQYGTSPYTFGQGTKLEIKRTVAAPSVFIFPPSDEQLKSGTASVVCLLNNFYPREAKVQWKVDNALQSGNSQESVTEHDSRDSTYSLGSTLTLSKADYEKHKVYACEVTHQGLSSPVTKSFNRGEC
notes: also called Fab X5; antibody Fab fragment X5
With B1, the Kd was 10 nM in the assay with gp120 JRFL; 2 nM with gp120JRFL+sCD4 complex; 15 nM in [1]; 9.3 nM in the assay with gp120 89.6 [2]; 9.4 nM in the assay with gp120 89.6 [3]; 1 nM in the assay with sCD4-gp120 89.6 complex. Binding in assay [4] was characterised by a dissociation constant (Kd) of 1 nM.

B2: Phage-displayed X5 (Fab)
heavy: B1 heavy
light: B1 light
notes: also called phage X5; not shown: phage gene III fragment of the phagemid
With B2, the Kd in assay [5] is 1.4 nM; in [6], 0.09 nM. Besides, the “fold lower effective affinity than for the gp120-CD4-CCR5 complex” value in assay [7] was 15 fold.

Source of the values: patent US20040259075A1 (US Dept. of Health and Human Services, published 2004).
